Results on one sequence are retold here after paper PMC3167755.

The data set concerns the target T1, Fur-His6 (CjFur-His6) (Campylobacter jejuni 81-176) (UniProt P0C631).
T1 sequence: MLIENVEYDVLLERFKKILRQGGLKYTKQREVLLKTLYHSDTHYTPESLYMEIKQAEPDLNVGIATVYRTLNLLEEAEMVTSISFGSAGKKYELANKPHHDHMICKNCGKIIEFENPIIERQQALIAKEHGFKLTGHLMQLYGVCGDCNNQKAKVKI
The data set is described as follows: EMSA. To be noted: 10 mM Tris-HCl pH 7.5, 1 mM MgCl2, 0.5 mM DTT, 50 mM KCl, 100 uM MnCl2 (omitted where stated), 1 ug poly(dI-dC), 50 ug BSA, 5% glycerol, 20 ul, ~28 fmol DNA …. A general note: Mobility shift assays separate free from complexed probe on a gel.

Regarding “GCTAATGCAAAACTTGAATAAAATACAAGAGCTAAAACAAATTTGCAAAAAAATTTACGCATATTATATCCTTGGTTAAATAAAATTTTCAAAGATAATTTTATTTAAAAAAATAAATAAGCCCAAATTTATTTTTGGGCTTATTGTTATTTTTTAGGATTGAATGCTTGATCAACACTAAAAGGCATTGCTTGATAACCCGTGCCTGAACCGCTAAATTGAATTTGAACCGAAGGCTCCTTAGCACCCCAGTTAAATTCATCAATTTCAGGTTTTGGCTCTCCAAGACTTACACCT (double strand) [dsbA1 promoter region]”, the binding entry is given as “no binding”.
